Assay results reported in the Immune Epitope Database (IEDB).

Key:
[1] = molecular target: HLA-B*07:02; test: IEDB peptide-MHC binding, purified MHC/competitive/fluorescence; filed as Kd, often an IC50 or EC50 that approximates it; ≥ and ≤ were set here for values at or beyond the usual limits of such assays; details: source organism: Pseudomonas aeruginosa UCBPP-PA14
[2] = molecular target: HLA-A*26:01; test: as above; details: source organism: Pseudomonas aeruginosa UCBPP-PA14
[3] = molecular target: HLA-A*69:01; test: as above
[4] = molecular target: HLA-A*01:01; test: as above; details: source organism: Pseudomonas aeruginosa UCBPP-PA14
[5] = molecular target: HLA-B*40:01; test: as above; details: source organism: Pseudomonas aeruginosa UCBPP-PA14
[6] = molecular target: HLA-B*27:05; test: as above; details: source organism: Pseudomonas aeruginosa UCBPP-PA14
[7] = molecular target: HLA-A*02:01; test: as above; details: source organism: Pseudomonas aeruginosa UCBPP-PA14
[8] = molecular target: HLA-A*11:01; test: as above; details: source organism: Pseudomonas aeruginosa UCBPP-PA14
[9] = molecular target: HLA-B*15:01; test: as above; details: source organism: Pseudomonas aeruginosa UCBPP-PA14
[10] = molecular target: HLA-A*02:19; test: as above; details: source organism: Pseudomonas aeruginosa UCBPP-PA14
[11] = molecular target: HLA-B*35:01; test: as above; details: source organism: Pseudomonas aeruginosa UCBPP-PA14
[12] = molecular target: HLA-A*02:50; test: as above; details: source organism: Pseudomonas aeruginosa UCBPP-PA14
[13] = molecular target: HLA-A*24:02; test: as above; details: source organism: Pseudomonas aeruginosa UCBPP-PA14
[14] = molecular target: HLA-A*02:11; test: as above; details: source organism: Pseudomonas aeruginosa UCBPP-PA14
[15] = molecular target: HLA-A*02:16; test: as above; details: source organism: Pseudomonas aeruginosa UCBPP-PA14
[16] = molecular target: HLA-A*03:01; test: as above; details: source organism: Pseudomonas aeruginosa UCBPP-PA14
[17] = molecular target: HLA-A*31:01; test: as above; details: source organism: Pseudomonas aeruginosa UCBPP-PA14
[18] = molecular target: HLA-A*02:12; test: as above; details: source organism: Pseudomonas aeruginosa UCBPP-PA14
[19] = molecular target: HLA-B*18:01; test: as above; details: source organism: Pseudomonas aeruginosa UCBPP-PA14
[20] = molecular target: HLA-B*58:01; test: as above; details: source organism: Pseudomonas aeruginosa UCBPP-PA14
[21] = molecular target: HLA-A*02:06; test: as above; details: source organism: Pseudomonas aeruginosa UCBPP-PA14
[22] = molecular target: HLA-A*30:01; test: as above
[23] = molecular target: HLA-B*46:01; test: as above; details: source organism: Pseudomonas aeruginosa UCBPP-PA14
[24] = molecular target: HLA-B*07:02; test: IEDB peptide-MHC binding, purified MHC/direct/fluorescence; filed as Kd, often an IC50 or EC50 that approximates it; ≥ and ≤ were set here for values at or beyond the usual limits of such assays
[25] = molecular target: HLA-A*01:01; test: as above
[26] = molecular target: HLA-B*40:01; test: as above
[27] = molecular target: HLA-B*27:05; test: as above
[28] = molecular target: HLA-B*51:01; test: as above; details: source organism: Bacillus anthracis
[29] = molecular target: HLA-A*02:01; test: as above; details: source organism: Bacillus anthracis
[30] = molecular target: HLA-A*11:01; test: as above
[31] = molecular target: HLA-B*15:01; test: as above; details: source organism: Bacillus anthracis
[32] = molecular target: HLA-B*48:01; test: as above
[33] = molecular target: HLA-B*57:01; test: as above
[34] = molecular target: HLA-A*03:01; test: as above; details: source organism: Bacillus anthracis
[35] = molecular target: HLA-A*31:01; test: as above
[36] = molecular target: HLA-B*38:01; test: as above; details: source organism: Bacillus cereus 03BB108
[37] = molecular target: HLA-B*15:17; test: as above; details: source organism: Bacillus anthracis
[38] = molecular target: HLA-B*18:01; test: as above
[39] = molecular target: HLA-B*58:01; test: as above
[40] = molecular target: HLA-A*30:01; test: as above; details: source organism: Bacillus cereus 03BB108
[41] = molecular target: HLA-B*46:01; test: as above; details: source organism: Bacillus anthracis
[42] = molecular target: HLA-B*15:09; test: IEDB peptide-MHC binding, purified MHC/competitive/fluorescence; filed as Kd, often an IC50 or EC50 that approximates it; ≥ and ≤ were set here for values at or beyond the usual limits of such assays
[43] = molecular target: HLA-A*69:01; test: IEDB peptide-MHC binding, purified MHC/direct/fluorescence; filed as Kd, often an IC50 or EC50 that approximates it; ≥ and ≤ were set here for values at or beyond the usual limits of such assays; details: source organism: Camelpox virus M-96
[44] = molecular target: HLA-B*44:02; test: as above; details: source organism: Camelpox virus M-96
[45] = molecular target: HLA-A*26:03; test: as above; details: source organism: Variola virus
[46] = molecular target: HLA-A*68:02; test: IEDB peptide-MHC binding, purified MHC/competitive/fluorescence; filed as Kd, often an IC50 or EC50 that approximates it; ≥ and ≤ were set here for values at or beyond the usual limits of such assays; details: source organism: Vaccinia virus Copenhagen
[47] = molecular target: HLA-B*39:01; test: as above; details: source organism: Vaccinia virus Copenhagen
[48] = molecular target: HLA-B*15:17; test: as above; details: source organism: Vaccinia virus Copenhagen
[49] = source organism: Pseudomonas aeruginosa UCBPP-PA14
[50] = source organism: Bacillus anthracis
[51] = source organism: Bacillus anthracis str. A0488
[52] = source organism: Camelpox virus M-96
[53] = source organism: Vaccinia virus Copenhagen

FLDDASNSA
Kd [1]: ≥ 20 µM
Kd [2]: ≥ 20 µM
Kd [3, 49]: 1010 nM
Kd [4]: ≥ 20 µM
Kd [5]: ≥ 20 µM
Kd [6]: ≥ 20 µM
Kd [7]: 41.4 nM
Kd [8]: ≥ 20 µM
Kd [9]: ≥ 20 µM
Kd [10]: 100 nM
Kd [11]: ≥ 20 µM
Kd [12]: 5.3 nM
Kd [13]: ≥ 20 µM
Kd [14]: 0.5 nM
Kd [15]: 1.6 nM
Kd [16]: ≥ 20 µM
Kd [17]: ≥ 20 µM
Kd [18]: 2.2 nM
Kd [19]: ≥ 20 µM
Kd [20]: ≥ 20 µM
Kd [21]: 6.7 nM
Kd [22, 49]: ≥ 20 µM
Kd [23]: ≥ 20 µM

WFREDRSPV
Kd [24, 50]: ≥ 20 µM
Kd [25, 50]: ≥ 20 µM
Kd [26, 50]: ≥ 20000 nM
Kd [27, 50]: ≥ 20 µM
Kd [28]: ≥ 20 µM
Kd [29]: ≥ 20 µM
Kd [30, 50]: ≥ 20 µM
Kd [31]: ≥ 20 µM
Kd [32, 50]: ≥ 20 µM
Kd [33, 50]: ≥ 20 µM
Kd [34]: ≥ 20 µM
Kd [35, 50]: ≥ 20 µM
Kd [36]: ≥ 20 µM
Kd [37]: ≥ 20 µM
Kd [38, 50]: 145 nM
Kd [39, 50]: ≥ 20 µM
Kd [40]: ≥ 20 µM
Kd [41]: ≥ 20 µM
Kd [3, 51]: ≥ 20000 nM
Kd [42, 51]: ≥ 20 µM

LEYGANYFL
Kd [24, 52]: ≥ 20 µM
Kd [43]: 1600 nM
Kd [25, 52]: ≥ 20 µM
Kd [26, 52]: 3.3 nM
Kd [27, 52]: ≥ 20 µM
Kd [30, 52]: ≥ 20 µM
Kd [32, 52]: 4.39 µM
Kd [33, 52]: ≥ 20 µM
Kd [44]: ≥ 20 µM
Kd [35, 52]: ≥ 20 µM
Kd [38, 52]: 11.7 nM
Kd [39, 52]: ≥ 20 µM
Kd [45]: ≥ 20 µM
Kd [42, 53]: ≥ 20 µM
Kd [46]: 2260 nM
Kd [47]: 3000 nM
Kd [48]: ≥ 20 µM
Kd [22, 53]: ≥ 20 µM
